From patent US7387779B2, “Anti-angiogenic proteins and fragments and methods of use thereof” (Beth Israel Deaconess Medical Center, priority 1998, dated 2008) come the findings set out here.

For data set [1], the target named is T1, human αvβ3 protein (Homo sapiens, UniProt P05106+P06756).
T1 construct: purchased CHEMICON Int'l, Temecula, Calif., USA
In words: Competition proliferation assay with soluble αvβ3 protein, C-PAE cells. In kind it is cell-based, bovine. The protocol: C-PAE cells were plated into 96-well plates as described above for the endothelial cell proliferation assay. Tumstatin at a final concentration of 0.1 μg/ml was incubated with varying concentrations (0, 0.008, 0.08, 0.8, 1.6 and 2.4 μg/ml) of human αvβ3 protein (CHEMICON Int'l, Temecula, Calif., USA) for 30 minutes at room temperature. This mixture was then added into the wells, and incubated for 48 hours. The proliferation assay was then performed using the methylene blue staining method, as described above for the endothelial cell proliferation assay.
The integrin αvβ3 was then investigated for its ability to reverse the anti-proliferative effects of Tumstatin and Tum-2. Tumstatin and Tum-2 were incubated with αvβ3 protein for 30 minutes, and added to C-PAE cells which were plated in 96-well plates and incubated overnight with growth media. After incubation for 48 hours, the cell number was determined by methylene blue staining.
Integrin αvβ3 was investigate for its ability to reverse the anti-proliferative affects of peptide T3. T3 peptide was incubated with 0, 0.001, 0.01, 0.1, 0.5, or 1.0 μg/ml αvβ3 integrin protein (CHEMICON Int'l, Temecula, Calif., USA) for 30 minutes at room temperature, and was then added, at 20 μg/ml final concentration, to C-PAE cells that had been grown in 96-well plates in growth media. After 48 hours of additional incubation, cell number was determined by the methylene blue assay. The results are shown in FIG. 43C, which is a histogram showing the growth of C-PAE cells (y-axis) when treated with T3 peptide that had been pre-incubated with varying concentrations (x-axis) of αvβ3 integrin.
Soluble αvβ3 integrin protein reversed the anti-proliferative effects of Tumstatin-44-131. This was shown by a competition proliferation assay as described above in Example 26. […] E. Coli-expressed Tumstatin-44-131 was then incubated with αvβ3 integrin protein for 30 minutes, and then added to C-PAE cells with 20% FCS. After 48 hours, cell proliferation was determined by methylene blue staining. The anti-proliferative affect of Tumstatin-44-131 was reversed dose-dependently with increasing concentrations of αvβ3 soluble protein.

For data set [2], the system named is Caspase-3 in C-PAE cells. Nature of the data set: Caspase-3 assay. Type of data set: cell-based, bovine. The conditions noted are these: for effect on Caspase-3 activity: 5 μg/ml. As for the experimental part: Tumstatin also altered cell morphology of C-PAE cells as monitored by phase contrast microscopy. After treating cells with 20 μg/ml of Tumstatin in the presence of 10% FCS for 24 hours on fibronectin-coated plates, the typical morphological features of apoptotic cells, membrane blebbing, cytoplasmic shrinkage, and chromatin condensation could be observed. […] Caspase-3 assay: Caspase-3 (CPP32) is an intracellular protease activated at the early stage of apoptosis, and initiates cellular breakdown by degrading structural and DNA repair proteins (Casciola-Rosen, L. et al., 1996, J. Exp. Med. 183:1957-64; Salvesen, G. S. et al., 1997, Cell 91:443-46). The protease activity of Caspase-3 was measured spectrophotometrically by detection of the chromophore (p-nitroanilide) cleaved from the labeled substrate (DEVD-pNA). C-PAE cells or PC-3 cells (0.5×10^6 per well) were plated onto a 6-well plate precoated with fibronectin (10 μg/ml) in DMEM supplemented with 10% FCS, and incubated overnight. The next day, the medium was replaced with DMEM containing 2% FCS and then incubated overnight at 37° C. Then cells were then stimulated with bFGF (3 ng/ml) in DMEM supplemented with 2% FCS, and also containing either TNF-α (80 ng/ml, positive control) or Tumstatin (10 μg/ml), and incubated for 24 hours. Controls received PBS buffer. After 24 hours, the supernatant cells were collected, and attached cells were trypsinized and combined with the supernatant cells. Cells were counted and resuspended in cell lysis buffer (Clontech) at a concentration of 4×10^7 cells/ml. The rest of the protocol followed the manufacturer's instructions (Clontech). A specific inhibitor of Caspase-3, DEVD-fmk (Asp-Glu-Val-Asp-fluoromethyl ketone) was used to confirm the specificity of the assay. The absorbance was measured in a microplate reader (Bio-Rad, Hercules, Calif., USA) at 405 nm. The assay was repeated three times for each cell type.
Apoptosis was also evaluated by measuring Caspase-3 activity as described in Example 27, above. The results are shown in FIG. 35, which is a histogram showing Caspase-3 activity as a measure of absorbance at OD405 (y-axis) of C-PAE cells treated (x-axis) with 5 μg/ml Tum-1, Tum-2, Tum-3 or Tum-4, or 80 ng/ml TNF-α or PBS buffer (control).
Caspase-3 activity was also assayed as described above. DEVD-fmk, a specific caspase-3 inhibitor, was used as an internal control to show specificity of Tumstatin-44-131. TNF-α (80 ng/ml) was used as a positive control. The experiments were repeated three times.
The protease activity of Caspase-3 in cells treated with T3 peptide was measured spectrophotometrically by detection of the chromophore (p-nitroanilide) cleaved from the labeled substrate (DEVD-pNA). […] In PC-3 nonendothelial cells, there was no difference in Caspase-3 activity between control treatments and T3 peptide-treated cells.

For data set [3], the system named is Goodpasture autoantibody. Nature of the data set: Reactivity with Goodpasture autoantibody (western blotting). Type of data set: binding, human. The source says: Goodpasture syndrome is an autoimmune disease characterized by pulmonary hemorrhage and/or rapidly progressing glomerulonephritis, which are caused by the disruption of glomerular and alveolar basement membranes through immune injury associated with autoantibody activity against α3(IV) NC1. Recently, the most probable disease-related pathogenic epitope was identified in the N-terminal portion (Kalluri, R. et al., 1996, J. Biol. Chem. 271:9062-8; Hellmark, T. et al., 1999, Kidney Int. 55:938-44), and was then further confined within the N-terminal 40 amino acids (Hellmark, T. et al., 1999, J. Biol. Chem. 274:25862-8; Netzer, K. O. et al., 1999, J. Biol. Chem. 274:11267-74). The N-terminal Tumstatin-44-131 consists of residues 44-131 of Tumstatin, which is outside of the Goodpasture autoepitope. To further confirm that Tumstatin-44-131 would not be detected by Goodpasture autoantibody, antisera from patients with Goodpasture was used for western blotting.
In general terms: A western blot detects proteins with antibodies after separation by electrophoresis.

T1 sequence (P06756 31-889 limits assumed): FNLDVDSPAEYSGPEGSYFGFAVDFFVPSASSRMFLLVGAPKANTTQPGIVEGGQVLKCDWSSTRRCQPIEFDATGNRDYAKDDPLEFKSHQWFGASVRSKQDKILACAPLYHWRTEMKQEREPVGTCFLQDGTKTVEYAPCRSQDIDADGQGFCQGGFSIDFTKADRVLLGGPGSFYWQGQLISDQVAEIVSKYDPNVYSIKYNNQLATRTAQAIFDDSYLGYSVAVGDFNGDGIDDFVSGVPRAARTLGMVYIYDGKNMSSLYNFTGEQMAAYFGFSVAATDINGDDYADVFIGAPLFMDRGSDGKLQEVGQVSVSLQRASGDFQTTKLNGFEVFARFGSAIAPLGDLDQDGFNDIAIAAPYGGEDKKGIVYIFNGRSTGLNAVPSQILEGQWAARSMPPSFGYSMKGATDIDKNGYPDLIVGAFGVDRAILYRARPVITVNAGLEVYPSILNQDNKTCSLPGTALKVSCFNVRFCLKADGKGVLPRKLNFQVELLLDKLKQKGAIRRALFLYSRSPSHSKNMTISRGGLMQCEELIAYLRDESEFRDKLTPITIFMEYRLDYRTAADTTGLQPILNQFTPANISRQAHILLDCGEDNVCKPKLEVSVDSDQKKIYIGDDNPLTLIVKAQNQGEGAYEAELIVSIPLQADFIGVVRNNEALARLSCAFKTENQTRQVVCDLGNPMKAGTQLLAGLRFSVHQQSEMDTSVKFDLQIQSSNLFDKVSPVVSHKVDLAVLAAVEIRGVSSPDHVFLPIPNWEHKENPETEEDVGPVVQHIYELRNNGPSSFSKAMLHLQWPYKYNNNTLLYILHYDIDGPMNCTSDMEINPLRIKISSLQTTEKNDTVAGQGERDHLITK
T1 sequence (P06756 891-1048 partner limits assumed): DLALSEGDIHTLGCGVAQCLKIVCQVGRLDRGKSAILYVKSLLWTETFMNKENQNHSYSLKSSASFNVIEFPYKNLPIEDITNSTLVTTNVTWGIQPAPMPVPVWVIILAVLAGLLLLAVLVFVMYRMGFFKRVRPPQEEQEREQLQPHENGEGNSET
T1 sequence (P05106 27-788): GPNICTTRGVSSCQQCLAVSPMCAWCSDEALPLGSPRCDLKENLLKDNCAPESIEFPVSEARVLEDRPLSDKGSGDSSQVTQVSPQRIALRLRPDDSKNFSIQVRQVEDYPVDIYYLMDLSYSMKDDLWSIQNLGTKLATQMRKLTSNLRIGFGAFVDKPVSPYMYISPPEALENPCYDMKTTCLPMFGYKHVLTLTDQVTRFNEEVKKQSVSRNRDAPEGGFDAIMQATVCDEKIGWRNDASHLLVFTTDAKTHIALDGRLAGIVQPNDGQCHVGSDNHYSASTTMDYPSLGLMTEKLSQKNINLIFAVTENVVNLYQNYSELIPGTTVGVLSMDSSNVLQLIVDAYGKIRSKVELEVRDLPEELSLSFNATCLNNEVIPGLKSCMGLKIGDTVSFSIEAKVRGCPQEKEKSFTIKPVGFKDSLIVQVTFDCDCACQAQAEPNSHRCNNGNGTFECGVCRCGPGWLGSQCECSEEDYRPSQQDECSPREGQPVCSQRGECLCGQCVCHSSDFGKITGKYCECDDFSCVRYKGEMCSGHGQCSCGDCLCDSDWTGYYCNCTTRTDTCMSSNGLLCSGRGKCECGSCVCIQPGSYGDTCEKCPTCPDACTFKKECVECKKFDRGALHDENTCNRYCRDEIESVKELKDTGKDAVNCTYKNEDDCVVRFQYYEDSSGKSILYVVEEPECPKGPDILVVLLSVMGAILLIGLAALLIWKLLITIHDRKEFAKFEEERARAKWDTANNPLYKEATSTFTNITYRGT

On to LQRFTTMPFLFCNVNDVCNF [T3], for which the “anti-proliferative effect after pre-incubation with αvβ3 integrin protein” value in data set [1] (peptide 20 μg/ml) is recorded as “significantly decreased”. Besides, the “fold increase in Caspase-3 activity” value worked out at 3.6 fold in data set [2] (50 μg/ml T3 peptide, TNF-α 80 ng/ml) and 1.6 fold in data set [2] (T3 peptide at 10 mg/ml (so in the source)).

B1: Tum-1: residues 54 to 244 of Tumstatin, lacking the N-terminal 53 amino acids (SEQ ID NO:22) (protein)
chain: QRAHGQDLGTLGSCLQRFTTMPFLFCNVNDVCNFASRNDYSYWLSTPALMPMNMAPITGRALEPYISRCTVCEGPAIAIAVHSQTTDIPPCPHGWISLWKGFSFIMFTSAGSEGTGQALASPGSCLEEFRASPFLECHGRGTCNYYSNSYSFWLASLNPERMFRKPIPSTVKAGELEKIISRCQVCMKKRH
modifications: Tum-1 (Tumstatin N-53) (amino acids 54-244 of SEQ ID NO10)
For the molecule B1, in data set [2], the “effect on Caspase-3 activity” value is given as “increased”. For the same molecule, the “detection by antisera / autoantibodies from patients with Goodpasture syndrome” value (from here on “detection by antisera / autoantibodies”) in data set [3] was “did not bind autoantibodies”.

B2: Tum-2: residues 1 to 132 of Tumstatin (SEQ ID NO:23) (protein)
chain: GLKGKRGDSGSPATWTTRGFVFTRHSQTTAIPSCPEGTVPLYSGFSFLFVQGNQRAHGQDLGTLGSCLQRFTTMPFLFCNVNDVCNFASRNDYSYWLSTPALMPMNMAPITGRALEPYISRCTVCEGPAIAI
modifications: Tum-2 (amino acids 1-132 of SEQ ID NO10)
Regarding B2, the “recovery of anti-proliferative effect by soluble αvβ3 protein” value in data set [1] (2 g/ml αvβ3 protein (so in the source)) is 74.1%. Further, the “effect on Caspase-3 activity” value in data set [2] was “increased”.

B3: Tumstatin-44-131: residues 44 to 131 of full-length Tumstatin (SEQ ID NO:33) (protein)
chain: FSFLFVQGNQRAHGQDLGTLGSCLQRFTTMPFLFCNVNDVCNFASRNDYSYWLSTPALMPMNMAPITGRALEPYISRCTVCEGPAIAI
modifications: Tumstatin-45-132 (amino acids 45-132 of SEQ ID NO10)
Consider B3, for which the “reversal of anti-proliferative effect by soluble αvβ3 protein” value in data set [1] (αvβ3 protein at 1 μg/ml, 20% FCS) was found to be 65.9%. The “fold increase in Caspase-3 activity” value in data set [2] (10 μg/ml E. Coli-expressed Tumstatin-44-131, TNF-α 80 ng/ml) came out at 4.5 fold. In data set [3], the “detection by antisera / autoantibodies” value is “failed to detect”.

B4: Tum-4: residues 181 to 244 of Tumstatin (SEQ ID NO:25) (protein)
chain: EFRASPFLECHGRGTCNYYSNSYSFWLASLNPERMFRKPIPSTVKAGELEKIISRCQVCMKKRH
modifications: Tum-4 (amino acids 181-244 of SEQ ID NO10)
For B4, the “effect on Caspase-3 activity” value in data set [2] is on record as “did not”.

B5: Tumstatin: NC1 domain of the α3 chain of type IV collagen, residues 1-244 (SEQ ID NO:10) (protein, listed as Homo sapiens)
chain: GLKGKRGDSGSPATWTTRGFVFTRHSQTTAIPSCPEGTVPLYSGFSFLFVQGNQRAHGQDLGTLGSCLQRFTTMPFLFCNVNDVCNFASRNDYSYWLSTPALMPMNMAPITGRALEPYISRCTVCEGPAIAIAVHSQTTDIPPCPHGWISLWKGFSFIMFTSAGSEGTGQALASPGSCLEEFRASPFLECHGRGTCNYYSNSYSFWLASLNPERMFRKPIPSTVKAGELEKIISRCQVCMKKRH
In the case of B5, the “reversal of anti-proliferative effect by soluble αvβ3 protein” value in data set [1] (αvβ3 at 2.4 μg/ml (3-fold molar excess), Tumstatin 0.1 μg/ml) is 43.1%. Further, the “detection by antisera / autoantibodies” value in data set [3] is reported as “detected”.
